Measured values from article PMC5437272, “ISCA1 is essential for mitochondrial Fe4S4 biogenesis in vivo” (Nature Communications, 2017).
Values joined by “and” are separate entries in the source; they are usually repeats but may differ in a detail not shown here. Equal entries are not always repeated.

Target: the molecule itself
Assay: SEC; analytical Superdex-75, 0.5 ml min^-1, buffer E (100 mM Tris-HCl pH 7.5, 100 mM NaCl, 5 mM DTT), calibrated with molecular weight standards; oligomerization state of the ISCA proteins

Protein	stoichiometry N
His-ISCA2 (mouse recombinant ISCA2, mature form) (natural protein, UniProt Q9DCB8 38-154, looked up, ISCA2, mouse, mature form cloned into pET-11a; theoretical mass of the His-tagged monomer 13,554 Da; As purified it holds a Fe2S2 cluster; also called Fe2S2-ISCA2; source: E. coli BL21(DE3)/pET-ISCA2, purified under anaerobic condition (Ni-NTA); not shown: His tag, N-terminal, kept) TTSSIPEAGEGQIRLTDSCVQRLLEITEGSEFLRLQVEGGGCSGFQYKFSLDTVINPDDRVFEQGGARVVVDSDSLAFVKGAQVDFSQELIRSSFQVLNNPQAQQGCSCGSSFSVKV	2
His-ISCA1 (mouse recombinant ISCA1, mature form) (natural protein, UniProt Q9D924 13-129, looked up, ISCA1, mouse, mature form cloned into pET-11a; theoretical mass of the His-tagged monomer 13,898.8 Da; As purified it holds a Fe2S2 cluster; By gel filtration a mixture of dimer (main) and tetramer (minor); also called Fe2S2-ISCA1; source: E. coli BL21(DE3)/pET-ISCA1, purified aerobically (Ni-NTA); not shown: His tag, N-terminal, kept) VSKRKLQPTRAALTLTPSAVNKIKQLLKDKPEHVGLKVGVRTRGCNGLSYSLEYTKTKGDSDEEVIQDGVRVFIEKKAQLTLLGTEMDYVEDKLSSEFVFNNPNIKGTCGCGESFHV	2 and 4
